Test results: paper PMC4297981 (Scientific Reports, 2015)

Target: the molecule itself
Assay: SDS-PAGE

B1: integrin β1a-TMC variant L749C (transmembrane and cytoplasmic domains, V717-K798, cys-less background), reconstituted in POPC/POPG liposomes (domain or fragment, human, UniProt P05556-1 717-798, looked up)
chain: VVENPESPTGPDIIPIVAGVVAGIVLIGLALLCIWKLLMIIHDRREFAKFEKEKMNAKWDTGENPIYKSAVTTVVNPKYEGK
  binding result: binds
